Biological target: T1, biotinylated C36 peptide bL4_C36 (residues 628 to 663 of HIV-1 HXB2 Env, gp41 HR2) (HIV-1 HXB2, N-terminal biotin attached through the Gly-Ser-Gly-Ser linker; C-terminal amide)
T1 construct: also called C36 derivative
T1 peptide: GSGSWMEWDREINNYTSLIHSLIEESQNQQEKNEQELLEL
Test: ITC, bL4_C36 (50 microM, syringe) titrated into scAB013_N3 (2.46 microM, cell), 1:1 binding model

B1: scAB013_N3 Alphabody, N-terminally appended with a (His)6 tag (designed binder)
chain: HHHHHHAAIAAQQHLIALIQWGIAQLQARIYAMTGGSSGGMSIEEIQKQIAAIQKQIAAIQKQIYRMTGGSSGGMSIQAIQKQLQAIVKQIKAIQKQILAMEA
notes: Expressed in E. coli BL21(DE3) from pET16b and purified by IMAC and SEC; also called gp41 N-trimer-mimicking Alphabody
- Kd: 150 nM
- ΔH: -7.17 kcal/mol

— patent US20120177676A1 (COMPLIX, published 2012)
